The chains are these.
B1: TPR t1 (parent)
chain: GACCAAUCUGCCCUCAGAGCUCGAGAACAUCUUCGGAUGCAGAGGAGGCAGGCUUCGGUGGCGCGAUAGCGCCAACGUCCUCAACCUCCAAUGCAUCCCACCACAUGAUGAUGCCUGAAGAGCCUUGGUUUUUUG

The series covers variants of B1. In words: polymerase ribozyme fitness, log enrichment relative to wild type (log ratio); higher = more active; in vitro selection for triplet polymerase activity. Put shortly:
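A single round of triplicate in vitro selection, including frozen incubation at −7 °C, was applied to PCR-built, transcribed mutant libraries of each subunit of a heterodimeric triplet polymerase ribozyme. Illumina sequencing of input and output libraries retained genotypes with ≥10 input reads and ≥1 read per output. Fitness is the base-2 logarithm of genotype enrichment divided by wild-type enrichment, from inverse-variance-weighted replicate averages.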
Regarding G52A G69C C104U G113C, the “polymerase ribozyme fitness (log ratio)” value was -4.79.
For A29G G51U C62U C82G the value was -4.8; for U30C A43U C56U G58U U112G, -6.19.
With G61A A66U U78C A118G the figure was -1.83; with C20A C22U U59G C82A A111U, -5.49; with C28U U112C, 0.129.
C8G C15U C22U: the “polymerase ribozyme fitness (log ratio)” value was -4.73.
With C94A G117U U125A the figure was -5.92.
Consider U112A C123G, for which the “polymerase ribozyme fitness (log ratio)” value worked out at 0.872.
Consider C22A C79U U87A, for which the “polymerase ribozyme fitness (log ratio)” value was -4.8.
For the variant A6U U54C C72U, the “polymerase ribozyme fitness (log ratio)” value stood at 0.695.
As to C4U A5G U38A C70U G120A, the “polymerase ribozyme fitness (log ratio)” value is -1.12.
For the variant A37G G61U, the “polymerase ribozyme fitness (log ratio)” value is -1.33.
For C8U U9G G60A the value was -0.0864; for U14C G93U U112A, -2.43; for C13A G113U, -4.1.
In the case of G61C A66C, the “polymerase ribozyme fitness (log ratio)” value is -2.87.
With G52U C72U the figure was -0.747; with C8U C70A C73A C97U, -3.27; with C40G C104A C124G, 0.0636.
For C11U G45C C88A, the “polymerase ribozyme fitness (log ratio)” value was -0.484.
As for C11A C15U C28G C123G G128U, the “polymerase ribozyme fitness (log ratio)” value is -5.63.
For the variant C8A U32C C49A, the “polymerase ribozyme fitness (log ratio)” value was found to be 0.0595.
Regarding U33A C49U C73U, the “polymerase ribozyme fitness (log ratio)” value is -5.84.
G63U C123G: the “polymerase ribozyme fitness (log ratio)” value was found to be 0.817.
On to A2C U59A G122A, for which the “polymerase ribozyme fitness (log ratio)” value was -2.15.
For G36U G69A U81A, the “polymerase ribozyme fitness (log ratio)” value was -3.96.
As for C8G C70G A74U, the “polymerase ribozyme fitness (log ratio)” value was -4.41.
Regarding C12A C20U, the “polymerase ribozyme fitness (log ratio)” value was -0.43.
With C99A G110A the figure was -5.17; with C11A C13G C20U C53U U78G, -2.65; with G61U C102A, -2.05.
G48C C101U U109G: the “polymerase ribozyme fitness (log ratio)” value was -5.98.
For C12A C72U C102U C114G, the “polymerase ribozyme fitness (log ratio)” value was -5.72.
As for G69A U78G, the “polymerase ribozyme fitness (log ratio)” value was -2.63.
For C40U A118G the value was -1.24; for C8G A16G A41G, 0.487; for G61C G120U, -1.08.
For G63C C94A U112A U116A the value was -2.14.
Regarding C70G C85A G93A C99G G110U, the “polymerase ribozyme fitness (log ratio)” value is -6.29.
With A5G C88A G107A C114U the figure was -3.65; with A50C A75G A95C C123U, 0.24.
With A2U G52U C53A G63U U132C the figure was -2.74; with G52A C102U G120A, -1.56.
Turning to C4G C13U C20G A27U G71U U106A U125G, the “polymerase ribozyme fitness (log ratio)” value is -5.01.
Turning to C64G C123G, the “polymerase ribozyme fitness (log ratio)” value is -5.33.
With C13A A27U G47U the figure was -3.3; with U7C A46C G60U, -0.333.
On to C4U A37G, for which the “polymerase ribozyme fitness (log ratio)” value was -0.871.
Regarding C56U U112C, the “polymerase ribozyme fitness (log ratio)” value is 0.364.
With C49A G61A, the “polymerase ribozyme fitness (log ratio)” value was 0.617.
With U32C G42A C56U C115U, the “polymerase ribozyme fitness (log ratio)” value is -1.93.
With G10C C12A A83C C124G the figure was 1.04; with A74U, -0.247; with C89A C101A, -2.25.
Take C73A C102U: the “polymerase ribozyme fitness (log ratio)” value was -0.943.
Take C88A U116G: the “polymerase ribozyme fitness (log ratio)” value was -2.94.
For C4U C8G G36U U38A G44U C73A C124A the value was -4.82; for C11U U96A G110U, -2.95; for G19U A46U G60A, -3.83.
With C13G C40A G63A the figure was -4.13; with G44U C72G U78G C82G, -2.66.
As to C73U A103U, the “polymerase ribozyme fitness (log ratio)” value is -4.35.
Regarding A43G G44U G48A U78C C124A, the “polymerase ribozyme fitness (log ratio)” value was found to be 0.343.
For A5G G42U C80A the value was -5.11; for C11U C40G C53U C73G C79A C86U, -4.32; for A41G U78C C82A, -0.297.
For A6C G35U U59C A83U C98G A121U the value was -4.28; for C101A A105G, -3.13; for G19A C88U, -2.19.
For C12U G36A C62G C73A the value was -6.24; for A27G C102U A103G U112G, -7.77; for A29U G113C, -2.87.
Take C13A G69U U129A: the “polymerase ribozyme fitness (log ratio)” value was -1.63.
With C11U C82U C104A U112A the figure was 0.128; with G17U G69A C114G, -5.6.
For C8G U109A, the “polymerase ribozyme fitness (log ratio)” value was -4.06.
With C85G U112A the figure was 0.357.
For C4A C72G the value was -1.81.
For U21A A90C the value was -1.58; for A6G U14G C28U G110C C115U U125A, -6.22.
As to C49G C101G, the “polymerase ribozyme fitness (log ratio)” value is -1.92.
For U81A U92A A118G, the “polymerase ribozyme fitness (log ratio)” value was -5.64.
For the variant A18U C64U C72G A121G, the “polymerase ribozyme fitness (log ratio)” value is -0.335.

The values above are taken from the RNAGym collection of RNA variant scans (doi:10.1073/pnas.2313332121).
